Publication PMC2852889

Target: human serum amyloid P (human), P02743
Assay: SPR
Settings: remark: other sources report otherwise

Sequence of human serum amyloid P (human), P02743 (P02743 20-223): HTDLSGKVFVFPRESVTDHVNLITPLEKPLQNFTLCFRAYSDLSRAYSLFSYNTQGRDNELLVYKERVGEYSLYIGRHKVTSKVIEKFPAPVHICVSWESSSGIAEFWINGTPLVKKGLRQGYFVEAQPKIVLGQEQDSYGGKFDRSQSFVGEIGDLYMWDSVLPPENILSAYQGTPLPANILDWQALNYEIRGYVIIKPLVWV

Kd: 0.37 nM
B1: hFcγRIIIB, O75015 17-200 (receptor)
chain: GMRTEDLPKAVVFLEPQWYSVLEKDSVTLKCQGAYSPEDNSTQWFHNENLISSQASSYFIDAATVNDSGEYRCQTNLSTLSDPVQLEVHIGWLLLQAPRWVFKEEDPIHLRCHSWKNTALHKVTYLQNGKDRKYFHHNSDFHIPKATLKDSGSYFCRGLVGSKNVSSETVNITITQGLAVSTIS
